Measurements as given in paper PMC5665528, “Characterization of the deubiquitination activity and substrate specificity of the chicken ubiquitin-specific protease 1/USP associated factor 1 complex” (PLoS ONE, 2017).

Target: T1, chicken ubiquitin-specific protease 1, chUSP1^GG680,681AA double mutant (full-length control) (chicken, UniProt F1NPR3 1-794, G680A | G681A)
T1 sequence (looked up): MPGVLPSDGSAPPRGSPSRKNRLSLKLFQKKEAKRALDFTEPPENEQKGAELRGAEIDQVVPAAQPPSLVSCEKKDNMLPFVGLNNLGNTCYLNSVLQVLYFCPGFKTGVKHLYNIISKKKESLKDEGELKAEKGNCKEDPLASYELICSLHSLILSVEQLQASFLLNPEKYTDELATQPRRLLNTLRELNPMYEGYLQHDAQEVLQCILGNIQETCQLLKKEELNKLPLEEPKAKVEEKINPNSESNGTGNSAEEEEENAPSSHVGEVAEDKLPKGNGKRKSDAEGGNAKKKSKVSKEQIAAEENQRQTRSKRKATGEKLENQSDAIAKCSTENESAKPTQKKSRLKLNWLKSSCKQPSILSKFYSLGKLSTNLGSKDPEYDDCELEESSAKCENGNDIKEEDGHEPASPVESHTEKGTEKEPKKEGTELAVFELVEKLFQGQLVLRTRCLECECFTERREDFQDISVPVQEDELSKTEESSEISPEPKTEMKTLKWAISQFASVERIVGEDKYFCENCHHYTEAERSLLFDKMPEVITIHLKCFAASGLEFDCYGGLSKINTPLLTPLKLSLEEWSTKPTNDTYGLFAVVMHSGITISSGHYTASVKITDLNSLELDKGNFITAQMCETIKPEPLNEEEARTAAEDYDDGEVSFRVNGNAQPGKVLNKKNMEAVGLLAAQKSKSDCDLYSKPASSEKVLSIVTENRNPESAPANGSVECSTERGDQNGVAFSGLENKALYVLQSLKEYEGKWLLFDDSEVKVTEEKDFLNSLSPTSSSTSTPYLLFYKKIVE
Assay: cell-based or functional assay

KM of chUSP1^FL (hydrolysis of Ub-AMC) in the presence of chUAF1 against chUSP1^FL alone, fold decrease: 2.87 fold
deubiquitination activity (kcat/KM, hydrolysis of Ub-AMC) of chUSP1^FL/chUAF1 against chUSP1^FL alone: 54 fold
deubiquitination activity of 125 nM chUSP1^FL (AMC fluorescence from 100 nM Ub-AMC) three minutes after the addition of 125 nM chUAF1, against the control without chUAF1: > 2 fold
kcat of chUSP1^FL (hydrolysis of Ub-AMC) in the presence of chUAF1 against chUSP1^FL alone: 21 fold
B1: chicken USP associated factor 1, untagged (natural protein)
chain: not shown
